In article PMC12705702, “Structural insights into the atypical filament assembly of pyrin domain-containing IFI16” (The EMBO Journal, 2025):

Target: the molecule itself
Assay: cryo-EM structure; filament auto-assembled by recombinant IFI16^PYD; 73 uM in 40 mM HEPES pH 7.4, 160 mM NaCl, 1 mM EDTA, 1 mM DTT; helical reconstruction, 3.3 Å

B1: human IFI16 pyrin domain (IFI16^PYD, residues 1-94) with C-terminal His6-tag (domain or fragment, UniProt Q16666 1-94, looked up)
chain: MGKKYKNIVLLKGLEVINDYHFRMVKSLLSNDLKLNLKMREEYDKIQIADLMEEKFRGDAGLGKLIKIFEDIPTLEDLAETLKKEKLKVKGPAL
notes: Interferon-inducible protein 16 (IFI16), human, pyrin domain, residues 1-94; Assembles into a helical filament; the number of protomers in a filament is open-ended; also called recombinant IFI16^PYD; pET21b IFI16^PYD-His6; source: E. coli BL21(DE3), purified (Ni-NTA, Superdex 75 size exclusion)
- binding result: binds
